# Reference: paper PMC2654577
# B1: C1-inhibitor (natural protein)
# chain: NPNATSSSSQDPESLQDRGEGKVATTVISKMLFVEPILEVSSLPTTNSTTNSATKITANTTDEPTTQPTTEPTTQPTIQPTQPTTQLPTDSPTQPTTGSFCPGPVTLCSDLESHSTEAVLGDALVDFSLKLYHAFSAMKKVETNMAFSPFSIASLLTQVLLGAGENTKTNLESILSYPKDFTCVHQALKGFTTKGVTSVSQIFHSPDLAIRDTFVNASRTLYSSSPRVLSNNSDANLELINTWVAKNTNNKISRLLDSLPSDTRLVLLNAIYLSAKWKTTFDPKKTRMEPFHFKNSVIKVPMMNSKKYPVAHFIDQTLKAKVGQLQLSHNLSLVILVPQNLKHRLEDMEQALSPSVFKAIMEKLEMSKFQPTLLTLPRIKVTTSQDMLSIMEKLEFFDFSYDLNLCGLTEDPDLQVSAMQHQTVLELTETGVEAAAASAISVARTLLVFEVQQPFLFVLWDQQHKFPVFMGRVYDPRA
# What was measured:
# Experiment in all cases: enzyme inhibition kinetics
# [1] = molecular target: full-length factor XIa autolysis loop variant fXIa-144-149A (human)
# [2] = molecular target: factor XIa catalytic domain K179A (human)
# [3] = molecular target: factor XIa catalytic domain R171A (human) (UniProt P03951)
# [4] = molecular target: factor XIa catalytic domain R173A (human) (UniProt P03951)
# [5] = molecular target: factor XIa catalytic domain K175A (human)
binder,measurement,setting,value
B1,k2 (second-order inhibition rate constant),[1],600 M⁻¹ s⁻¹
same,k2 (second-order inhibition rate constant),[2],1100 M⁻¹ s⁻¹
same,k2 (second-order inhibition rate constant),[3],600 M⁻¹ s⁻¹
same,k2 (second-order inhibition rate constant),[4],1300 M⁻¹ s⁻¹
same,k2 (second-order inhibition rate constant),[5],1000 M⁻¹ s⁻¹
